# Target: the molecule itself
# Test: cryo-EM structure
protein,measurement,value
"mouse TRPC4 (residues a.a. 1-758, excluding a.a. 759-974) (natural protein, UniProt Q9QUQ5 1-758, looked up) MAQFYYKRNVNAPYRDRIPLRIVRAESELSPSEKAYLNAVEKGDYASVKKSLEEAEIYFKININCIDPLGRTALLIAIENENLELIELLLSFNVYVGDALLHAIRKEVVGAVELLLNHKKPSGEKQVPPILLDKQFSEFTPDITPIILAAHTNNYEIIKLLVQKGVSVPRPHEVRCNCVECVSSSDVDSLRHSRSRLNIYKALASPSLIALSSEDPFLTAFQLSWELQELSKVENEFKSEYEELSRQCKQFAKDLLDQTRSSRELEIILNYRDDNSLIEEQSGNDLARLKLAIKYRQKEFVAQPNCQQLLASRWYDEFPGWRRRHWAVKMVTCFIIGLLFPVFSVCYLIAPKSPLGLFIRKPFIKFICHTASYLTFLFLLLLASQHIDRSDLNRQGPPPTIVEWMILPWVLGFIWGEIKQMWDGGLQDYIHDWWNLMDFVMNSLYLATISLKIVAFVKYSALNPRESWDMWHPTLVAEALFAIANIFSSLRLISLFTANSHLGPLQISLGRMLLDILKFLFIYCLVLLAFANGLNQLYFYYEETKGLSCKGIRCEKQNNAFSTLFETLQSLFWSIFGLINLYVTNVKAQHEFTEFVGATMFGTYNVISLVVLLNMLIAMMNNSYQLIADHADIEWKFARTKLWMSYFEEGGTLPTPFNVIPSPKSLWYLVKWIWTHLCKKKMRRKPESFGTIGRRAADNLRRHHQYQEVMRNLVKRYVAAMIREAKTEEGLTEENVKELKQDISSFRFEVLGLLRGSK",stoichiometry N,4
